# Measurements as given in patent US20220195455A1, “DELIVERY OF CRISPR/MCAS9 THROUGH EXTRACELLULAR VESICLES FOR GENOME EDITING” (University of Georgia Research Foundation, Inc., priority 2019, published 2022).
# Key:
# Assay in all cases: NMT1 activity assay (CoA release, fluorescence);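 also: released CoA from NMT1-catalysed myristoylation of octapeptide substrates detected by fluorescence after reaction with a maleimide coumarin dye (excitation 390 nm, emission 479 nm), triplicate points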
# Format in all cases: biochemical
# Details in all cases: other: octapeptide as NMT1 substrate; full length NMT1
# [1] = substrate: CC(C)[C@H](NC(=O)[C@H](CCCNC(=N)N)NC(=O)[C@H](CO)NC(=O)CN)C(=O)N[C@@H](CO)C(=O)N[C@@H](CCCNC(=N)N)C(=O)N[C@@H](CCC(=O)O)C(=O)N[C@@H](CC(=O)O)C(=O)O
# Method: (§1) The amount of the released CoA were reacted with 7-diethylamino-3-(4′-maleimidylphenyl)-4-methylcoumarin. The assay was performed in 96-well black microplates. The produced fluorescence intensity was measured by Flex Station 3, and detected by microplate reader (excitation at 390 nm; emission at 479 nm).
# (§2) The amount of the released CoA were reacted with 7-diethylamino-3-(4′-maleimidylphenyl)-4-methylcoumarin. The assay was performed in 96-well black microplates. The produced fluorescence intensity was measured by Flex Station 3, and detected by microplate reader (excitation at 390 nm; emission at 479 nm). To measure the Km and Vmax of NMT1 which catalyzed various octapeptides substrates derived from various proteins, twenty-five octapeptides were synthesized by GenScript. […] Each data point has three repeats.
# (§3) Km and Vmax catalyzed by full length NMT1 protein were calculated.
# [2] = substrate: CC[C@H](C)[C@H](NC(=O)[C@H](CS)NC(=O)CN)C(=O)N[C@@H](CCCCN)C(=O)N[C@@H](CO)C(=O)N[C@@H](CCCCN)C(=O)NCC(=O)N[C@@H](CCCCN)C(=O)O
# Method: as §1, §2, §3
# [3] = substrate: C[C@H](NC(=O)[C@@H](NC(=O)[C@H](CCCCN)NC(=O)[C@H](CO)NC(=O)[C@H](Cc1ccccc1)NC(=O)[C@H](CCC(N)=O)NC(=O)[C@H](C)NC(=O)CN)[C@@H](C)O)C(=O)O
# Method: as §1, §2, §3
# [4] = substrate: N=C(N)NCCC[C@H](NC(=O)[C@H](Cc1ccc(O)cc1)NC(=O)[C@H](Cc1c[nH]cn1)NC(=O)[C@H](CCCNC(=N)N)NC(=O)[C@H](CO)NC(=O)[C@H](CCC(=O)O)NC(=O)[C@H](CCCNC(=N)N)NC(=O)CN)C(=O)O
# Method: as §1, §2, §3
# [5] = substrate: CC[C@H](C)[C@H](NC(=O)[C@H](CCCCN)NC(=O)[C@H](CO)NC(=O)[C@H](CC(C)C)NC(=O)[C@@H](NC(=O)[C@H](CCCCN)NC(=O)CN)C(C)C)C(=O)N[C@@H](Cc1ccccc1)C(=O)O
# Method: as §1, §2, §3
# [6] = substrate: CC(C)[C@H](NC(=O)[C@H](CS)NC(=O)CN)C(=O)N[C@@H](CCC(N)=O)C(=O)N[C@@H](CS)C(=O)N[C@@H](CCCCN)C(=O)N[C@@H](CC(=O)O)C(=O)N[C@@H](CCCCN)C(=O)O
# Method: as §1, §2, §3
# [7] = substrate: N=C(N)NCCC[C@H](NC(=O)[C@H](CCCNC(=N)N)NC(=O)[C@H](CCCCN)NC(=O)[C@H](CO)NC(=O)[C@H](Cc1ccccc1)NC(=O)[C@H](Cc1ccccc1)NC(=O)[C@H](CS)NC(=O)CN)C(=O)O
# Method: as §1, §2, §3
# [8] = substrate: CC[C@H](C)[C@H](NC(=O)CNC(=O)[C@H](CCCNC(=N)N)NC(=O)[C@@H](NC(=O)[C@@H](NC(=O)[C@H](CC(C)C)NC(=O)[C@H](C)NC(=O)CN)C(C)C)[C@@H](C)CC)C(=O)O
# Method: as §1, §2, §3
# [9] = substrate: CC(C)C[C@H](NC(=O)CN)C(=O)N[C@@H](CC(C)C)C(=O)N[C@@H](CC(=O)O)C(=O)N[C@@H](CCCNC(=N)N)C(=O)N[C@@H](CC(C)C)C(=O)N[C@@H](CO)C(=O)N[C@H](C(=O)O)C(C)C
# Method: as §1, §2, §3
# [10] = substrate: C[C@H](NC(=O)[C@H](CCCCN)NC(=O)[C@H](CO)NC(=O)[C@H](CO)NC(=O)[C@H](CCC(N)=O)NC(=O)[C@H](CO)NC(=O)CN)C(=O)N1CCC[C@H]1C(=O)O
# Method: as §1, §2, §3
# [11] = substrate: CC(C)C[C@H](NC(=O)[C@H](C)NC(=O)[C@H](CO)NC(=O)[C@H](CC(N)=O)NC(=O)[C@H](CCC(=O)O)NC(=O)[C@H](CO)NC(=O)CN)C(=O)N[C@@H](CCCCN)C(=O)O
# Method: as §1, §2, §3
# [12] = substrate: CC(C)C[C@H](NC(=O)[C@H](CCC(N)=O)NC(=O)[C@H](CCC(N)=O)NC(=O)[C@H](CO)NC(=O)[C@H](C)NC(=O)[C@H](CCCCN)NC(=O)[C@H](CCC(N)=O)NC(=O)CN)C(=O)O
# Method: as §1, §2, §3
# [13] = substrate: NCCCC[C@H](NC(=O)[C@@H]1CCCN1C(=O)[C@H](CCCCN)NC(=O)[C@H](CO)NC(=O)[C@H](CCCCN)NC(=O)[C@H](CC(N)=O)NC(=O)[C@H](CO)NC(=O)CN)C(=O)O
# Method: as §1, §2, §3
# [14] = substrate: C[C@H](N)C(=O)N[C@@H](CO)C(=O)N[C@@H](CC(N)=O)C(=O)N[C@@H](CCCCN)C(=O)N[C@@H](CO)C(=O)N[C@@H](CCCCN)C(=O)N1CCC[C@H]1C(=O)N[C@@H](CCCCN)C(=O)O
# Method: as §1, §2, §3
# [15] = substrate: CC[C@H](C)[C@H](NC(=O)[C@H](CS)NC(=O)CN)C(=O)N[C@@H](CCCCN)C(=O)N[C@@H](CO)C(=O)N[C@@H](CCCCN)C(=O)N[C@@H](CCC(=O)O)C(=O)N[C@@H](CC(N)=O)C(=O)O
# Method: as §1, §2, §3
# [16] = substrate: CSCC[C@H](NC(=O)[C@@H](NC(=O)[C@H](CCC(=O)O)NC(=O)CN)[C@@H](C)O)C(=O)N[C@@H](CO)C(=O)N[C@@H](CCCCN)C(=O)N[C@@H](CCCNC(=N)N)C(=O)N[C@@H](CC(C)C)C(=O)O
# Method: as §1, §2, §3
# [17] = substrate: CC[C@H](C)[C@H](NC(=O)[C@@H](NC(=O)[C@H](CC(C)C)NC(=O)[C@H](CC(C)C)NC(=O)CN)[C@@H](C)O)C(=O)N[C@@H](CC(C)C)C(=O)N[C@@H](CCCCN)C(=O)N[C@@H](CCCCN)C(=O)O
# Method: as §1, §2, §3
# [18] = substrate: C[C@H](NC(=O)[C@@H]1CCCN1C(=O)CNC(=O)[C@H](CO)NC(=O)[C@H](CCC(N)=O)NC(=O)[C@H](CCCCN)NC(=O)[C@H](C)NC(=O)CN)C(=O)O
# Method: as §1, §2, §3
# [19] = substrate: CC(C)C[C@H](NC(=O)[C@H](CS)NC(=O)[C@H](CC(N)=O)NC(=O)CN)C(=O)N[C@@H](CCCCN)C(=O)N[C@@H](CO)C(=O)N1CCC[C@H]1C(=O)N[C@H](C(=O)O)[C@@H](C)O
# Method: as §1, §2, §3
# [20] = substrate: CC(C)C[C@H](NC(=O)[C@H](Cc1c[nH]cn1)NC(=O)[C@H](C)NC(=O)CN)C(=O)N[C@H](C(=O)N[C@@H](CCCNC(=N)N)C(=O)N[C@@H](CCCNC(=N)N)C(=O)N[C@@H](Cc1ccc(O)cc1)C(=O)O)C(C)C
# Method: as §1, §2, §3
# [21] = substrate: C[C@H](NC(=O)[C@H](CC(N)=O)NC(=O)CN)C(=O)N[C@@H](CCC(N)=O)C(=O)N[C@@H](CCC(=O)O)C(=O)N[C@@H](CCCNC(=N)N)C(=O)N1CCC[C@H]1C(=O)N[C@@H](CO)C(=O)O
# Method: as §1, §2, §3
# [22] = substrate: C[C@H](NC(=O)[C@H](CCCCN)NC(=O)[C@H](CO)NC(=O)[C@H](CO)NC(=O)[C@H](CCCCN)NC(=O)[C@H](CCCNC(=N)N)NC(=O)CN)C(=O)N[C@@H](CCCCN)C(=O)O
# Method: as §1, §2, §3
# [23] = substrate: N=C(N)NCCC[C@H](NC(=O)[C@H](CS)NC(=O)CN)C(=O)N[C@@H](CCC(N)=O)C(=O)N[C@@H](CO)C(=O)N[C@@H](CO)C(=O)N[C@@H](CCC(=O)O)C(=O)N[C@@H](CCC(=O)O)C(=O)O
# Method: as §1, §2, §3
# [24] = substrate: CC(C)C[C@H](NC(=O)CNC(=O)CN)C(=O)N[C@@H](Cc1ccccc1)C(=O)N[C@@H](CO)C(=O)N[C@@H](CCCNC(=N)N)C(=O)N[C@@H](Cc1c[nH]c2ccccc12)C(=O)N[C@@H](CCCNC(=N)N)C(=O)O
# Method: as §1, §2, §3
protein,measurement,setting,value
"full length NMT1 protein (Homo sapiens) (protein, Km and Vmax catalyzed by full length NMT1 protein were calculated) MADESETAVKPPAPPLPQMMEGNGNGHEHCSDCENEEDNSYNRGGLSPANDTGAKKKKKKQKKKKEKGSETDSAQDQPVKMNSLPAERIQEIQKAIELFSVGQGPAKTMEEASKRSYQFWDTQPVPKLGEVVNTHGPVEPDKDNIRQEPYTLPQGFTWDALDLGDRGVLKELYTLLNENYVEDDDNMFRFDYSPEFLLWALRPPGWLPQWHCGVRVVSSRKLVGFISAIPANIHIYDTEKKMVEINFLCVHKKLRSKRVAPVLIREITRRVHLEGIFQAVYTAGVVLPKPVGTCRYWHRSLNPRKLIEVKFSHLSRNMTMQRTMKLYRLPETPKTAGLRPMETKDIPVVHQLLTRYLKQFHLTPVMSQEEVEHWFYPQENIIDTFVVENANGEVTDFLSFYTLPSTIMNHPTHKSLKAAYSFYNVHTQTPLLDLMSDALVLAKMKGFDVFNALDLMENKTFLEKLKFGIGDGNLQYYLYNWKCPSMGAEKVGLVLQ",Km,[1],79.2 µM
same,Vmax,[1],12.9 µM/min
same,Km,[2],22.5 µM
same,Vmax,[2],64.7 µM/min
same,Km,[3],38.4 µM
same,Vmax,[3],6.4 µM/min
same,Vmax,[4],2 µM/min
same,Km,[5],4.4 µM
same,Vmax,[5],13.6 µM/min
same,Km,[6],5.2 µM
same,Vmax,[6],54.9 µM/min
same,Km,[7],13.6 µM
same,Vmax,[7],60.8 µM/min
same,Km,[8],0.5 µM
same,Vmax,[8],1.2 µM/min
same,Vmax,[9],1.8 µM/min
same,Km,[10],11.7 µM
same,Vmax,[10],6.6 µM/min
same,Km,[11],0.8 µM
same,Vmax,[11],1.7 µM/min
same,Km,[12],15.7 µM
same,Vmax,[12],3.4 µM/min
same,Km,[13],14.3 µM
same,Vmax,[13],25.8 µM/min
same,Vmax,[14],1 µM/min
same,Km,[15],14.4 µM
same,Vmax,[15],61 µM/min
same,Km,[16],13.0 µM
same,Vmax,[16],5.3 µM/min
same,Km,[17],0.4 µM
same,Vmax,[17],1.2 µM/min
same,Km,[18],2.0 µM
same,Vmax,[18],1.6 µM/min
same,Km,[19],16.7 µM
same,Vmax,[19],61.1 µM/min
same,Km,[20],16.4 µM
same,Vmax,[20],2.8 µM/min
same,Km,[21],1.4 µM
same,Vmax,[21],2 µM/min
same,Km,[22],1.2 µM
same,Vmax,[22],1.8 µM/min
same,Km,[23],15.7 µM
same,Vmax,[23],64.4 µM/min
same,Km,[24],10.3 µM
same,Vmax,[24],21.9 µM/min
